This series concerns the target Dnmt1 (N-His) (UniProt P13864). Briefly: MST. Conditions: EMSA: 20 mM Tris pH 7.6, 30 mM KCl, 5 mM EDTA, 1 mM DTT, 5 uM SAM, 20% glycerol, 26 C, MST: 10 mM Tris/Cl, 150 mM KCl, 0.75 mM MgCl2, 0.25 mM EGTA.
Chain of UniProt P13864 (P13864 whole entry): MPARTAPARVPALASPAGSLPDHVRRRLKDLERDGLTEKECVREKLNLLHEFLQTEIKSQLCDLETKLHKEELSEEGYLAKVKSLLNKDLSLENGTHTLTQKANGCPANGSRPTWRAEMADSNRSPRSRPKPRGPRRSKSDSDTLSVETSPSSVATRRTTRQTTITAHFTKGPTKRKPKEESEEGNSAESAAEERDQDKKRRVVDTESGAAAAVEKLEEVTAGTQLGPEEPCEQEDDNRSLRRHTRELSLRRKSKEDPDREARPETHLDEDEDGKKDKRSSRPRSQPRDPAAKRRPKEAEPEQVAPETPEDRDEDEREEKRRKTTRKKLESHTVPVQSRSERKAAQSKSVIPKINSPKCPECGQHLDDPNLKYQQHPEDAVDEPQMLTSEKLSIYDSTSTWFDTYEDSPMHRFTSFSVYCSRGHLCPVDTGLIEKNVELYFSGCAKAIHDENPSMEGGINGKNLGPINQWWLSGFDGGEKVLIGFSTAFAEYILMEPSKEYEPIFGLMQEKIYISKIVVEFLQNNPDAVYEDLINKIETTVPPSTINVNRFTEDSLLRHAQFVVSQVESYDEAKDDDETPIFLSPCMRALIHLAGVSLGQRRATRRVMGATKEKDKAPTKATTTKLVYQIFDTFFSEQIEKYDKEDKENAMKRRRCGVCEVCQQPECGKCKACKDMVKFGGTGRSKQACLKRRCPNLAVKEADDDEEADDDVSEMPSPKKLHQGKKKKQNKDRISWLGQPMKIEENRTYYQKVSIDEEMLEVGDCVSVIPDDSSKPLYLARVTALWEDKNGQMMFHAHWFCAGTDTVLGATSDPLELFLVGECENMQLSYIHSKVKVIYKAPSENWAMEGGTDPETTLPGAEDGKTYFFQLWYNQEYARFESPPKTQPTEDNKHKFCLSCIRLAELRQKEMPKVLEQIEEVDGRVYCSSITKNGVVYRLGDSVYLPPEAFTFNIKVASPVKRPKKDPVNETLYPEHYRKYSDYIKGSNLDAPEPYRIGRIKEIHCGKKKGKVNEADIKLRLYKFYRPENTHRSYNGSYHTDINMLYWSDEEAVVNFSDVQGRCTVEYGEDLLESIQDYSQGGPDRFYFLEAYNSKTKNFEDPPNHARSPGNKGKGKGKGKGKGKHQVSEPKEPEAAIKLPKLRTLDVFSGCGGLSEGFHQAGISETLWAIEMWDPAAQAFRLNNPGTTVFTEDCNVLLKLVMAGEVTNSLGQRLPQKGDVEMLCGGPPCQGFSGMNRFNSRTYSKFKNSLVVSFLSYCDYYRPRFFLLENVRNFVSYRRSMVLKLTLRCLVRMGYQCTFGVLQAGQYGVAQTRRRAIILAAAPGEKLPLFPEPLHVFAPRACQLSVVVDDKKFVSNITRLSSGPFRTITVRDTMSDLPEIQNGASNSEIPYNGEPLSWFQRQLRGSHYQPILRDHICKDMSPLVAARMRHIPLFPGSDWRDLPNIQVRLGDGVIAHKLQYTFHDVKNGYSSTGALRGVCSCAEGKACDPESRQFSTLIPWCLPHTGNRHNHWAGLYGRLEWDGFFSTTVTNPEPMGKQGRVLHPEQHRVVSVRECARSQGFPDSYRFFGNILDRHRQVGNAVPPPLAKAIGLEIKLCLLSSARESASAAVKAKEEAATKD

Consider “TGCGGAATCGTCTAACGCGTGGAATCGTCCGATTGAGGTCGCGATCTCGAATCACGGTGC (double strand) [AIR60 hemi-methylated 60 bp DNA]”, for which the binding signal (fold higher affinity with SAM) (160 uM SAM, 5-methyl-C at Z positions of the lower strand (C5, C12, C18, C20, C29, C33, C40, C42, C49; strand printed only up to TTAGAZG, so the CG in the last 8 nt is unknown)) came out at 2.
“TGCGGAATCGTCTAACGCGTGGAATCGTCCGATTGAGGTCGCGATCTCGAATCACGGTGC (double strand) [AIR60 non-methylated 60 bp DNA]” yielded a K half of 1500 nM.

(Values after article PMC4619679.)
